Reference: the supplement of paper PMC7877785
± gives the uncertainty stated by the source.

Assay: self-splicing fitness, log relative to wild type (ln ratio); higher = more splicing; Tetrahymena group I intron in knt gene, E. coli kanamycin selection, DiMSum; sequences stand for … in CUCUCU…GGAGGGAAAAGUUAUCAGGCAUGCACCUGGUAGCUAGUCUUUAAACCAAUAGAUUGCAUCGGUUUAAAAGGCAAGACCGUCAAAUUGCGGGAAAGGGGUCAACAGCCGUUCAGUACCAAGUCUCAGGGGAAACUUUGAGAUGGCCUUGCAAAGGGUAUGGUAAUAAGCUGACGGACAUGGUCCUAACCACGCAGCCAAGUCCUAAGUCAACAGAUCUUCUGUUGAUAUGGAUGCAGUUCACAGACUAAAUGUCGGUCGGGGAAGAUGUAUUCUUCUCAUAAGAUAUAGUCGGACCUCUCCUUAAUGGGAGCUAGCGGAUGAAGUGAUGCAACACUGGAGCCGCUGGGAACUAAUUUGUAUGCGAAAGUAUAUUGAUUAGUUUUGGAGUACUCGUGGUCG
Summary of the method: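 A randomised library covering all eight P1ex-region intron nucleotides was built with the intron in the knt kanamycin-resistance gene on pET-22b(+) and held in E. coli BL21(DE3). Cells were grown overnight at 37°C or 30°C on LB agar, with or without 25 μg/mL kanamycin, plus 100 μg/mL carbenicillin, 50 μM IPTG and 0.2% rhamnose, and pooled colonies were amplicon-sequenced on an Illumina HiSeq 2500. DiMSum fitness is the error-weighted combination of wild-type-normalised replicate fold changes, kanamycin versus none.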

Sequence | self-splicing fitness (ln) (37 °C) | self-splicing fitness (ln) (30 °C)
AUCGAGCAAUAUUACGCCAC | -2.54 ± 0.45 | –
AUCGAGCAAUAUUACGCCCC | – | -2.24 ± 0.44
AUCGAGCAAUAUUACGCCGU | -1.46 ± 0.31 | -2.52 ± 0.21
AUCGAGCAAUAUUACGCGGA | -0.974 ± 0.11 | -2.55 ± 0.17
AUCGAGCAAUAUUACGCGUU | -1.1 ± 0.17 | -2.01 ± 0.17
AUCGAGCAAUAUUACGGCAC | -1.87 ± 0.16 | -3.16 ± 0.15
AUCGAGCAAUAUUACGGCGU | -0.183 ± 0.11 | -0.0628 ± 0.11
AUCGAGCAAUAUUACGGUAC | -2.51 ± 0.41 | –
AUCGAGCAAUAUUACGGUAU | -1.12 ± 0.11 | -2.46 ± 0.13
AUCGAGCAAUAUUACGUAGA | -2.7 ± 0.38 | -3.09 ± 0.32
AUCGAGCAAUAUUACGUAUC | -3.28 ± 0.37 | -2.86 ± 0.35
AUCGAGCAAUAUUACGUGCA | -1.14 ± 0.13 | -2.85 ± 0.21
AUCUAGCAAUAUUACGAAGG | -2.01 ± 0.32 | -3.42 ± 0.3
AUCUAGCAAUAUUACGAAUA | -0.668 ± 0.32 | –
AUCUAGCAAUAUUACGACAA | 0.296 ± 0.19 | -1.76 ± 0.23
AUCUAGCAAUAUUACGACCU | 0.729 ± 0.12 | -0.471 ± 0.11
AUCUAGCAAUAUUACGACGA | -0.44 ± 0.12 | -0.367 ± 0.12
AUCUAGCAAUAUUACGACGU | 0.669 ± 0.069 | 0.175 ± 0.057
AUCUAGCAAUAUUACGCAAG | -1.29 ± 0.18 | -1.46 ± 0.17
AUCUAGCAAUAUUACGCACG | -0.353 ± 0.14 | -1.37 ± 0.15
AUCUAGCAAUAUUACGCCUG | -1.39 ± 0.23 | -0.828 ± 0.16
AUCUAGCAAUAUUACGCCUU | 0.116 ± 0.095 | -0.764 ± 0.073
AUCUAGCAAUAUUACGCGGG | -2.12 ± 0.23 | -3.32 ± 0.26
AUCUAGCAAUAUUACGCGUU | -0.994 ± 0.1 | -1.76 ± 0.096
AUCUAGCAAUAUUACGCUCC | -0.736 ± 0.25 | -0.7 ± 0.18

Sequence | self-splicing fitness (ln) (37 °C) | self-splicing fitness (ln) (30 °C)
AUCUAGCAAUAUUACGCUGC | -1.66 ± 0.18 | -2.92 ± 0.24
AUCUAGCAAUAUUACGCUUC | -2.03 ± 0.23 | -3.91 ± 0.36
AUCUAGCAAUAUUACGGAAC | -1.75 ± 0.24 | -4.03 ± 0.37
AUCUAGCAAUAUUACGGCCC | -0.0846 ± 0.33 | 0.132 ± 0.2
AUCUAGCAAUAUUACGGCUC | -0.185 ± 0.19 | -0.871 ± 0.16
AUCUAGCAAUAUUACGGGAA | -0.903 ± 0.14 | -0.643 ± 0.13
AUCUAGCAAUAUUACGGUCA | -0.841 ± 0.14 | -1.31 ± 0.15
AUCUAGCAAUAUUACGUUAC | -1.74 ± 0.34 | -1.99 ± 0.27
AUGAAGCAAUAUUACGAAGA | -0.83 ± 0.16 | -1.9 ± 0.13
AUGAAGCAAUAUUACGAGAA | -1.07 ± 0.16 | -3.53 ± 0.27
AUGAAGCAAUAUUACGAGCC | -3.27 ± 0.38 | -3.01 ± 0.38
AUGAAGCAAUAUUACGAGGA | -2.6 ± 0.2 | -1.44 ± 0.14
AUGAAGCAAUAUUACGAUGC | -0.813 ± 0.17 | -1.95 ± 0.13
AUGAAGCAAUAUUACGCAGG | -0.916 ± 0.14 | -0.47 ± 0.12
AUGAAGCAAUAUUACGCAUC | -2.45 ± 0.17 | -4.84 ± 0.29
AUGAAGCAAUAUUACGCCCU | 0.202 ± 0.17 | 0.921 ± 0.15
AUGAAGCAAUAUUACGCGAC | -1.96 ± 0.27 | -2.1 ± 0.15
AUGAAGCAAUAUUACGCGAG | -0.225 ± 0.099 | -0.689 ± 0.09
AUGAAGCAAUAUUACGCGAU | -1.59 ± 0.23 | -2.89 ± 0.21
AUGAAGCAAUAUUACGGAAC | -1.24 ± 0.15 | -0.855 ± 0.098
AUGAAGCAAUAUUACGGACC | 0.108 ± 0.23 | -0.516 ± 0.22
AUGAAGCAAUAUUACGGCCC | 0.156 ± 0.17 | -0.0924 ± 0.12
AUGAAGCAAUAUUACGGCUC | 0.254 ± 0.13 | -0.602 ± 0.12
AUGAAGCAAUAUUACGUACU | 0.581 ± 0.11 | 0.105 ± 0.096
AUGAAGCAAUAUUACGUCUC | -1.22 ± 0.14 | -1.1 ± 0.14

Sequence | self-splicing fitness (ln) (37 °C) | self-splicing fitness (ln) (30 °C)
AUGAAGCAAUAUUACGUGCA | 0.364 ± 0.11 | -0.0826 ± 0.093
AUGAAGCAAUAUUACGUUAA | -0.908 ± 0.1 | -1.51 ± 0.084
AUGAAGCAAUAUUACGUUAC | -2.38 ± 0.24 | -1.96 ± 0.13
AUGAAGCAAUAUUACGUUAU | -0.555 ± 0.096 | -0.343 ± 0.071
AUGCAGCAAUAUUACGAAAA | -2.23 ± 0.42 | –
AUGCAGCAAUAUUACGAAGU | -1.75 ± 0.12 | -2 ± 0.15
AUGCAGCAAUAUUACGAUCC | -0.259 ± 0.29 | -1.78 ± 0.22
AUGCAGCAAUAUUACGAUGG | -2.94 ± 0.27 | -3.04 ± 0.21
AUGCAGCAAUAUUACGCAAU | -1.98 ± 0.13 | -2.65 ± 0.12
AUGCAGCAAUAUUACGCAGC | -1.91 ± 0.46 | –
AUGCAGCAAUAUUACGCCAG | -1.23 ± 0.17 | -2.18 ± 0.13
AUGCAGCAAUAUUACGCCGU | -0.859 ± 0.083 | -1.25 ± 0.069
AUGCAGCAAUAUUACGCCUU | -0.304 ± 0.095 | -0.919 ± 0.072
AUGCAGCAAUAUUACGCGCC | -0.038 ± 0.16 | -0.788 ± 0.15
AUGCAGCAAUAUUACGCUAA | -0.31 ± 0.12 | -0.813 ± 0.13
AUGCAGCAAUAUUACGUGGU | -2.18 ± 0.1 | -2.7 ± 0.095
AUGGAGCAAUAUUACGACAG | -0.415 ± 0.28 | -2.74 ± 0.28
AUGGAGCAAUAUUACGACGC | -0.789 ± 0.19 | -1.44 ± 0.16
AUGGAGCAAUAUUACGAUCA | -1.09 ± 0.25 | –
AUGGAGCAAUAUUACGAUGC | -2.04 ± 0.35 | -2.15 ± 0.37
AUGGAGCAAUAUUACGCAUG | -2.36 ± 0.25 | -2.5 ± 0.34
AUGGAGCAAUAUUACGCCGA | -2.87 ± 0.48 | -2.82 ± 0.32
AUGGAGCAAUAUUACGCGGA | -1.34 ± 0.22 | -2.73 ± 0.29
AUGGAGCAAUAUUACGGAAU | -2.02 ± 0.47 | -2.66 ± 0.32
AUGGAGCAAUAUUACGGCAU | -0.53 ± 0.16 | -0.641 ± 0.16

Sequence | self-splicing fitness (ln) (37 °C) | self-splicing fitness (ln) (30 °C)
AUGGAGCAAUAUUACGGCCA | -0.494 ± 0.21 | -1.49 ± 0.18
AUGGAGCAAUAUUACGGCCC | -1.43 ± 0.31 | -1.13 ± 0.24
AUGGAGCAAUAUUACGGGCG | -2.63 ± 0.44 | -3.21 ± 0.26
AUGGAGCAAUAUUACGGUAG | -2.51 ± 0.41 | -3.61 ± 0.33
AUGGAGCAAUAUUACGGUCA | -0.926 ± 0.2 | -2.19 ± 0.24
AUGGAGCAAUAUUACGUCCC | -0.013 ± 0.42 | 0.0307 ± 0.46
AUGGAGCAAUAUUACGUGGG | -0.89 ± 0.27 | -3.61 ± 0.37
AUGGAGCAAUAUUACGUUUC | -2.68 ± 0.26 | -3.47 ± 0.21
AUGUAGCAAUAUUACGACCU | -0.136 ± 0.34 | -0.739 ± 0.28
AUGUAGCAAUAUUACGAGUC | -3.28 ± 0.4 | -2.95 ± 0.23
AUGUAGCAAUAUUACGCCAG | -1.05 ± 0.31 | -3.46 ± 0.31
AUGUAGCAAUAUUACGCGAU | -2.55 ± 0.24 | -2.09 ± 0.2
AUGUAGCAAUAUUACGCGCU | -0.00271 ± 0.15 | -0.77 ± 0.14
AUGUAGCAAUAUUACGCGGC | -3.45 ± 0.27 | -4.15 ± 0.4
AUGUAGCAAUAUUACGCUCA | -0.2 ± 0.1 | -0.372 ± 0.075
AUGUAGCAAUAUUACGCUCC | -0.973 ± 0.45 | -0.373 ± 0.28
AUGUAGCAAUAUUACGCUGU | -1.12 ± 0.11 | -2.92 ± 0.12
AUGUAGCAAUAUUACGCUUU | -1.29 ± 0.11 | -3.23 ± 0.15
AUGUAGCAAUAUUACGGCGG | -1.14 ± 0.23 | -0.915 ± 0.19
AUGUAGCAAUAUUACGGUAG | -3.33 ± 0.42 | -4.38 ± 0.32
AUGUAGCAAUAUUACGGUCC | 0.341 ± 0.12 | -1.32 ± 0.1
AUGUAGCAAUAUUACGUCAA | -2.98 ± 0.35 | -2.9 ± 0.3
